Reference: patent US20200024330A1

Columns and labels:
Experiment in all cases: cell-based or functional assay
[1] = biological target: HIV-1 Env of pseudovirus MGRM-Chronic-B-004, clade B (HIV-1)
[2] = biological target: HIV-1 MGRM-A-005 envelope glycoprotein (Env) (HIV-1)
[3] = biological target: HIV-1 Env of isolate MGRM-G-013 (clade G pseudovirus) (HIV-1)
[4] = biological target: HIV-1 JR-CSF envelope protein (Env) on pseudovirus (HIV-1) (UniProt P20871)
[5] = biological target: HIV-1 93RW029 envelope glycoprotein (Env) (HIV-1)
[6] = biological target: HIV-1 Env of isolate CMU02 (HIV-1)
[7] = biological target: HIV-1 Env of isolate MGRM-D-022 (clade D) (HIV-1)
[8] = biological target: HIV-1 94UG103 envelope glycoprotein (Env) on pseudovirus (HIV-1)
[9] = biological target: HIV-1 94UG103 envelope protein (Env) on pseudovirus (HIV-1)
[10] = biological target: HIV-1 MGRM-F1-017 Env (pseudovirus) (HIV-1)
[11] = biological target: HIV-1 Env of isolate 92UG005 (clade D) (HIV-1)
[12] = biological target: HIV-1 Env of isolate MGRM-D-018 (clade D) (HIV-1)
[13] = biological target: HIV-1 Env of isolate MGRM-D-012 (clade D) (HIV-1)
[14] = biological target: HIV-1 MGRM-A-003 envelope glycoprotein (Env) (HIV-1)
[15] = biological target: HIV-1 APV-13 envelope protein (Env) on pseudovirus (HIV-1)
[16] = biological target: HIV-1 Env of isolate SF162 (HIV-1) (UniProt P19549)
[17] = biological target: HIV-1 APV-6 envelope protein (Env) on pseudovirus (HIV-1)
[18] = biological target: HIV-1 Env of isolate MGRM-D-016 (clade D) (HIV-1)
[19] = biological target: HIV-1 Env of isolate PVO.4 (HIV-1)

1443_C16 (PG16) (TCN-116) (antibody), sequence (VH): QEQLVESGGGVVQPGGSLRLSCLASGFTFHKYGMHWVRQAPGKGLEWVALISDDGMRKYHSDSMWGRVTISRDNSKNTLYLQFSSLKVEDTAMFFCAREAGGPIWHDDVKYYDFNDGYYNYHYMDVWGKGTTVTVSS
1443_C16 (PG16) (TCN-116) (antibody), sequence (VL): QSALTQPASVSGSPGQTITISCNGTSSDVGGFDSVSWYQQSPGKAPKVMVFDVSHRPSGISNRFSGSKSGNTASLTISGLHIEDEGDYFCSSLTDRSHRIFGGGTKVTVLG

Substance: b12 (antibody)
- IC50 (µg/ml), pseudovirus neutralization [1]: 0.26 µg/mL
- IC50 (µg/ml), pseudovirus neutralization [2]: 3.64 µg/mL
- IC50 (µg/ml), pseudovirus neutralization [3]: > 50 µg/mL
- neutralization IC50 [4]: 0.16 µg/mL
- IC50 (µg/ml), pseudovirus neutralization [5]: > 50 µg/mL
- IC50 (µg/ml), pseudovirus neutralization [6]: 29.3 µg/mL
- IC50 (µg/ml), pseudovirus neutralization [7]: 17.6 µg/mL
- IC90 (pseudovirus neutralization) [8]: 47.3 µg/mL
- neutralization IC50 [9]: 3.54 µg/mL
- IC50 (µg/ml), pseudovirus neutralization [10]: > 50 µg/mL
- IC50 (µg/ml), pseudovirus neutralization [11]: > 50 µg/mL
- IC50 (µg/ml), pseudovirus neutralization [12]: 1.39 µg/mL
- IC50 (µg/ml), pseudovirus neutralization [13]: 0.13 µg/mL
- IC50 (µg/ml), pseudovirus neutralization [14]: > 50 µg/mL
- neutralization IC50 [15]: > 25 µg/mL
- IC50 (µg/ml), pseudovirus neutralization [16]: 0.02 µg/mL
- neutralization IC50 [17]: > 25 µg/mL
- IC50 (µg/ml), pseudovirus neutralization [18]: 1.12 µg/mL

Substance: 4E10 (antibody)
- IC50 (µg/ml), pseudovirus neutralization [1]: 3.7 µg/mL
- IC50 (µg/ml), pseudovirus neutralization [2]: 4.09 µg/mL
- IC50 (µg/ml), pseudovirus neutralization [3]: 1.15 µg/mL
- neutralization IC50 [4]: 6 µg/mL
- IC50 (µg/ml), pseudovirus neutralization [5]: 15.5 µg/mL
- IC50 (µg/ml), pseudovirus neutralization [6]: 0.72 µg/mL
- IC50 (µg/ml), pseudovirus neutralization [7]: 16.9 µg/mL
- IC90 (pseudovirus neutralization) [8]: > 50 µg/mL
- neutralization IC50 [9]: 9.7 µg/mL
- IC50 (µg/ml), pseudovirus neutralization [10]: 4.92 µg/mL
- IC50 (µg/ml), pseudovirus neutralization [11]: 7.46 µg/mL
- IC50 (µg/ml), pseudovirus neutralization [12]: 3.9 µg/mL
- IC50 (µg/ml), pseudovirus neutralization [13]: 1.13 µg/mL
- IC50 (µg/ml), pseudovirus neutralization [14]: 5.94 µg/mL
- neutralization IC50 [15]: 3.8 µg/mL
- IC50 (µg/ml), pseudovirus neutralization [16]: 4.28 µg/mL
- neutralization IC50 [17]: 0.4 µg/mL
- IC50 (µg/ml), pseudovirus neutralization [18]: 15.4 µg/mL

Substance: 2F5 (antibody)
- IC50 (µg/ml), pseudovirus neutralization [1]: 2.41 µg/mL
- IC50 (µg/ml), pseudovirus neutralization [2]: 5.7 µg/mL
- IC50 (µg/ml), pseudovirus neutralization [3]: 0.59 µg/mL
- neutralization IC50 [4]: 3.36 µg/mL
- IC50 (µg/ml), pseudovirus neutralization [5]: > 50 µg/mL
- IC50 (µg/ml), pseudovirus neutralization [6]: 0.6 µg/mL
- IC50 (µg/ml), pseudovirus neutralization [7]: 8.45 µg/mL
- IC90 (pseudovirus neutralization) [8]: 46.6 µg/mL
- neutralization IC50 [9]: 3.79 µg/mL
- IC50 (µg/ml), pseudovirus neutralization [10]: > 50 µg/mL
- IC50 (µg/ml), pseudovirus neutralization [11]: 8.61 µg/mL
- IC50 (µg/ml), pseudovirus neutralization [12]: 4.05 µg/mL
- IC50 (µg/ml), pseudovirus neutralization [13]: 1.7 µg/mL
- IC50 (µg/ml), pseudovirus neutralization [14]: 7.37 µg/mL
- neutralization IC50 [15]: 2.8 µg/mL
- IC50 (µg/ml), pseudovirus neutralization [16]: 2.52 µg/mL
- neutralization IC50 [17]: 0.1 µg/mL
- IC50 (µg/ml), pseudovirus neutralization [18]: 9.85 µg/mL

Substance: 1443_C16 (PG16) (TCN-116) (antibody)
- IC50 (µg/ml), pseudovirus neutralization [1]: 0.01 µg/mL
- IC50 (µg/ml), pseudovirus neutralization [2]: 0.09 µg/mL
- IC50 (µg/ml), pseudovirus neutralization [3]: > 50 µg/mL
- neutralization IC50 [4]: < 0.0025 µg/mL
- IC50 (µg/ml), pseudovirus neutralization [5]: 3.83 µg/mL
- IC50 (µg/ml), pseudovirus neutralization [6]: 43.6 µg/mL
- IC50 (µg/ml), pseudovirus neutralization [7]: > 50 µg/mL
- IC90 (pseudovirus neutralization) [8]: 1.59 µg/mL
- neutralization IC50 [9]: 0.008 µg/mL
- IC50, pseudovirus neutralization (TZM-bl) [19]: 12.3 µg/mL
- IC50 (µg/ml), pseudovirus neutralization [10]: > 50 µg/mL
- IC50 (µg/ml), pseudovirus neutralization [11]: > 50 µg/mL
- IC50 (µg/ml), pseudovirus neutralization [12]: 0.004 µg/mL
- IC50 (µg/ml), pseudovirus neutralization [13]: 0.35 µg/mL
- IC50 (µg/ml), pseudovirus neutralization [14]: 2.65 µg/mL
- neutralization IC50 [15]: > 50 µg/mL
- IC50 (µg/ml), pseudovirus neutralization [16]: > 50 µg/mL
- neutralization IC50 [17]: 0.08 µg/mL
- IC50 (µg/ml), pseudovirus neutralization [18]: 0.02 µg/mL

Substance: 2G12 (antibody)
- IC50 (µg/ml), pseudovirus neutralization [1]: 8.65 µg/mL
- IC50 (µg/ml), pseudovirus neutralization [2]: > 50 µg/mL
- IC50 (µg/ml), pseudovirus neutralization [3]: > 50 µg/mL
- neutralization IC50 [4]: 0.66 µg/mL
- IC50 (µg/ml), pseudovirus neutralization [5]: > 50 µg/mL
- IC50 (µg/ml), pseudovirus neutralization [6]: > 50 µg/mL
- IC50 (µg/ml), pseudovirus neutralization [7]: > 50 µg/mL
- IC90 (pseudovirus neutralization) [8]: > 50 µg/mL
- neutralization IC50 [9]: > 50 µg/mL
- IC50 (µg/ml), pseudovirus neutralization [10]: > 50 µg/mL
- IC50 (µg/ml), pseudovirus neutralization [11]: > 50 µg/mL
- IC50 (µg/ml), pseudovirus neutralization [12]: 0.12 µg/mL
- IC50 (µg/ml), pseudovirus neutralization [13]: > 50 µg/mL
- IC50 (µg/ml), pseudovirus neutralization [14]: > 50 µg/mL
- neutralization IC50 [15]: 23.9 µg/mL
- IC50 (µg/ml), pseudovirus neutralization [16]: 1.67 µg/mL
- neutralization IC50 [17]: 5.3 µg/mL
- IC50 (µg/ml), pseudovirus neutralization [18]: > 50 µg/mL
